Laboratory results as given in paper PMC3506182 (Cancer research, 2012).

Target: T1, recombinant human CCN6 (rhCCN6) protein, full length (human, UniProt O95389 24-354)
T1 sequence (looked up): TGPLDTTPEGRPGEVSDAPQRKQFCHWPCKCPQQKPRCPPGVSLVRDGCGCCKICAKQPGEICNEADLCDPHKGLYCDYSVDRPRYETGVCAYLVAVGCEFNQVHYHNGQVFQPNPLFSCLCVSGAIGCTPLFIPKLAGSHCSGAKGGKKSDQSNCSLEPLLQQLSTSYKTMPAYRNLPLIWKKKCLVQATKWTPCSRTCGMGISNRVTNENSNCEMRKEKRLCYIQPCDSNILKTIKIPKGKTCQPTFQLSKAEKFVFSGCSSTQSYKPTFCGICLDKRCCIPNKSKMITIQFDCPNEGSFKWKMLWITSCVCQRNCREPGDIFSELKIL
Assay: SPR

Kd: 200 nM
B1: disulfide linked homodimer of biotin labeled rhBMP4 (Bio-BMP4) (ligand, human, UniProt P12644 293-408, looked up)
chain: SPKHHSQRARKKNKNCRRHSLYVDFSDVGWNDWIVAPPGYQAFYCHGDCPFPLADHLNSTNHAIVQTLVNSVNSSIPKACCVPTELSAISMLYLDEYDKVVLKNYQEMVVEGCGCR
modifications: biotin label (site not stated)
